Experimental data as given in paper PMC6155126.

Columns and labels:
FLAG-PAXX (human) = FLAG-PAXX (human) (UniProt Q9BUH6); test: affinity purification with mass spectrometry; anti-FLAG IP of FLAG-PAXX, -XLF, -XRCC4, -DNA-PKcs (stable) or FLAG-Pol λ (transient) from nucleoplasmic and benzonase-treated soluble chromatin fractions of HEK293F cells; FLAG peptide elution; LC-MS/MS
FLAG-Pol λ-WT (human) = FLAG-Pol λ-WT (human) (UniProt Q9UGP5)
FLAG-Pol λ-WT (human), sequence (Q9UGP5 whole entry): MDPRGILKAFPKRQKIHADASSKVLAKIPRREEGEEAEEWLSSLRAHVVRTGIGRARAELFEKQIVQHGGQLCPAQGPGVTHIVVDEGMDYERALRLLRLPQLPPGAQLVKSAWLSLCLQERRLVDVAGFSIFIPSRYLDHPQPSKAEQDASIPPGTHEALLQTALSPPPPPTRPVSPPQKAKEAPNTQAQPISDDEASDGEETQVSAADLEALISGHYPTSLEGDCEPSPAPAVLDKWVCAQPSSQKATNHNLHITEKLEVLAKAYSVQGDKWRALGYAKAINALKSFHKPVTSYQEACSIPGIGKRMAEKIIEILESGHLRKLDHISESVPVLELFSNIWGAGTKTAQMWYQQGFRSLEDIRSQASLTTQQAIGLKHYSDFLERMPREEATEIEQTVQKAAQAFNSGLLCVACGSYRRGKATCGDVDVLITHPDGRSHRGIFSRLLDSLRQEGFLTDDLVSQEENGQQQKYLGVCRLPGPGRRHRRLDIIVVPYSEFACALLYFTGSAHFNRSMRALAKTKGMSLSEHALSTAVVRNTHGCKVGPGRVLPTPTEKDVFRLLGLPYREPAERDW

| Substance | stoichiometry N (FLAG-PAXX (human)) | Pol λ-dependent gap filling synthesis on a 5nt-gapped dsDNA (33-mer), stimulation by added protein over a concentration series (FLAG-Pol λ-WT (human)) [fold] |
| --- | --- | --- |
| DNA-PK holoenzyme (endogenous) (from UniProt P78527 1-4128; P12956 1-609; P13010 1-732) (complex) | 1 to 1.5 |  |
| FLAG-PAXX (from UniProt Q9BUH6 1-204) (natural protein) |  | < 10 |
